Patent publication US20180021430A1 (UNIVERSITAETSKLINIKUM FREIBURG, published 2018)

T1: recombinant CD40L, TNF homologous region of human CD40L (E108 to L261), produced as c-myc- and His-tag fusion … (human)
T1 construct: also called sCD40L; His-tag-CD40L fusion protein
T1 chain: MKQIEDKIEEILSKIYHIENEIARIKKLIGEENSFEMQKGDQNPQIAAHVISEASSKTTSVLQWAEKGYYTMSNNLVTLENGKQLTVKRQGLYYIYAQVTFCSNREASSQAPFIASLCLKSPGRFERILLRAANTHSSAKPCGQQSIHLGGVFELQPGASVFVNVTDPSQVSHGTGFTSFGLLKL


How the values were obtained:
[1] = molecular target: T1, recombinant CD40L, TNF homologous …; experiment: solid phase competition assay: M7 against binding of CD40L to the immobilized I-domain
Method: (§1) Solid phase binding assay. […] A mixture of equal molarities of all peptides served as the positive control in this assay.
(§2) The recombinant Mac-1 I-domain was immobilized in 96-well plates (Nunc) in PBS at 4° C. overnight. […] Binding was quantified by addition of TMB-substrate (Pierce), colorimetric reaction at 450 nm. […] Binding of the recombinant Mac-1 I-domain was quantified by addition of anti-His-Biotin monoclonal antibody (Qiagen), HRP-coupled streptavidin (Pierce) and colorimetric reaction at 450 nm. […] Kd was estimated using a one-site binding hyperbola nonlinear regression model with the Software Prism (Graphpad). […] A mixture of equal molarities of all peptides served as positive control. Absorbance on BSA-coated wells served as negative control and was subtracted.

[2] = molecular target: T2, recombinant Mac-1 I-domain, human Mac-1 (alpha M) amino residues R115 to S340, soluble His-tag fusion protein (human, UniProt P11215 131-356); experiment: solid phase binding assay, one-site binding hyperbola; I-domain on immobilized CD40L, BSA wells subtracted
T2 construct: range 115-340; ~28 kDa; also called alphaM I-domain; not shown: C-terminal His-tag from vector pET20b
Method: as §1, §2

T2 sequence (P11215 131-356): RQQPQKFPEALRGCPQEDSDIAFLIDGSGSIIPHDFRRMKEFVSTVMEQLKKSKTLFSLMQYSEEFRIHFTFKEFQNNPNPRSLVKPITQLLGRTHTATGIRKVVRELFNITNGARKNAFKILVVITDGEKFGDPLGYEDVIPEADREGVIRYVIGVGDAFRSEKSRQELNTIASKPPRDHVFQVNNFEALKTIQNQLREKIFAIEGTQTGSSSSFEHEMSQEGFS

| IC50 [1] | Kd [2] | Binder |
| --- | --- | --- |
| ~4000 nM |  | EQLKKSKTL (linear fragment of the Mac-1 I-domain, E162-L170) [peptide M7 (EQLKKSKTL)] |
|  | ~66 nM | CD40L without a His-tag (Provitro) (ligand, Bought protein; also called CD40L (Provitro); immobilized CD40L) MQKGDQNPQIAAHVISEASSKTTSVLQWAEKGYYTMSNNLVTLENGKQLTVKRQGLYYIYAQVTFCSNREASSQAPFIASLCLKSPGRFERILLRAANTHSSAKPCGQQSIHLGGVFELQPGASVFVNVTDPSQVSHGTGFTSFGLLKL |
